Source: PMC3617124
Values belong to the substance of their own block, whether it stands above or below them.

Assays:
Assay in all cases: fluorescence polarisation
[1] = target: BAX (recombinant, tagless, full-length) (human) (UniProt Q07812)
[2] = target: MCL-1ΔNΔC (residues 172–327) (UniProt Q07820)
BAKΔC = target: BAKΔC
BCL-XLΔC = target: BCL-XLΔC
BFL-1/A1ΔC = target: BFL-1/A1ΔC

BAX (recombinant, tagless, full-length) (human), sequence (Q07812 whole entry, the tested form may be a part): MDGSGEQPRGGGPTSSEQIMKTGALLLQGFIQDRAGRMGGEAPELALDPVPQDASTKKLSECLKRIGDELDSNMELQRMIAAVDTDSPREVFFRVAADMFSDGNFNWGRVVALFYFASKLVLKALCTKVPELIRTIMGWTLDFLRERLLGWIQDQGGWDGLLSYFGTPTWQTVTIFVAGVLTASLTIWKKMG
MCL-1ΔNΔC (residues 172–327), sequence (Q07820 172-327, stated change not applied): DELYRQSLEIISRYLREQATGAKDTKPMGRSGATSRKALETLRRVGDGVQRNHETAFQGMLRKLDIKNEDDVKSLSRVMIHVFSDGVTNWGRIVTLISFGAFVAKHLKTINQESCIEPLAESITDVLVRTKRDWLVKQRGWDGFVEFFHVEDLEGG
BCL-XLΔC, sequence (Q07817 1-209, stated change not applied): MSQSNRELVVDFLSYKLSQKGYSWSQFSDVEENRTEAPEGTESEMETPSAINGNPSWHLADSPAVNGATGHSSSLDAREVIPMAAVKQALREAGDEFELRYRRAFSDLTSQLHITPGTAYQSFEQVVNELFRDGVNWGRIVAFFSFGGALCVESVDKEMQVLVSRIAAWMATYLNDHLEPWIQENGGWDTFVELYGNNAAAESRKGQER

EC50 [1]: 283 nM
EC50 [2]: 19.8 nM
EC50 (BAKΔC): 173 nM
Substance: FITC-BIM SAHB (fluoresceinated stabilized α-helix of BCL-2 domain modeled after BIM BH3) (peptide)

IC50 (BCL-XLΔC): 572 nM
IC50 [1]: 314 nM
IC50 [2]: 136 nM
IC50 (BAKΔC): 827 nM
Substance: N-terminally acetylated BIM SAHB (peptide)

IC50 (BFL-1/A1ΔC): 603 nM
Substance: N-terminally acetylated BIM SAHB (peptide; other documents disagree on this pair)
